Experiment [1] addresses recombinant mouse TNFα (mouse) (UniProt P06804). In words: cell-based or functional assay.
Experiment [2] concerns the target recombinant human TNFα (rhTNF, Dainippon, Osaka, Japan) (human) (UniProt P01375). In words: Scatchard analysis; direct binding of 125I-labelled antibody to rhTNFα immobilized in a 96-well plate.
UniProt P01375, sequence (P01375 77-233 limits assumed): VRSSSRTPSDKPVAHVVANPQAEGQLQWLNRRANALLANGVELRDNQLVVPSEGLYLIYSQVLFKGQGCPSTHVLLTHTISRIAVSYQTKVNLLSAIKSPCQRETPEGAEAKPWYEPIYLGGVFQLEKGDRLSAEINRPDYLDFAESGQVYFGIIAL

UniProt P06804, sequence (P06804 80-235 limits assumed): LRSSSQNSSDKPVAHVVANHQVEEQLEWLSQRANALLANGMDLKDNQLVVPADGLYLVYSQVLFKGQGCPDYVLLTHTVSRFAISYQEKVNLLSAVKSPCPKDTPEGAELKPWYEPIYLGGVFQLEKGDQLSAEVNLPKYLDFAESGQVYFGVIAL

Regarding “TN3-19.12, neutralizing hamster IgG1 anti-TNFα/β monoclonal antibody”, in experiment [1], the neutralizing titre: concentration required to cause 50% inhibition of killing of WEHI 164 cells by trimeric recombinant murine TNFα (60 pg/ml mouse TNFα) was found to be 62 ng/mL.

On to “TNF receptor/IgG fusion protein p55-sf2 (from UniProt P19438 30-211; P01857 1-330) (Fc fusion)”, for which the neutralizing titre: concentration required to cause 50% inhibition of killing of WEHI 164 cells by trimeric recombinant murine TNFα (60 pg/ml mouse TNFα) in experiment [1] came to 0.6 ng/mL.

For “chimeric A2 (cA2), chimeric monoclonal anti-TNF antibody”, the Ka in experiment [2] worked out at 1.8e+09 M⁻¹.
